From article PMC7402097, “Reduction of Protein Bound Methionine Sulfoxide by a Periplasmic Dimethyl Sulfoxide Reductase” (Antioxidants, 2020)

Tests used:
[1] = substrate: C[S+]([O-])CC[C@H](N)C(=O)O; assay: purified protein; format: biochemical, Cereibacter sphaeroides; settings: Britton-Robinson buffer pH 6.0, 46 nM DorA, electron donor dithionite-reduced benzyl viologen, R,S diastereomer mixture used, KM already divided by 2 to count only the S-diastereomer
[2] = substrate: C[S+](C)[O-]; assay: purified protein; settings: Britton-Robinson buffer pH 6.0, 46 nM DorA, electron donor dithionite-reduced benzyl viologen

B1: DorA DMSO reductase (Cereibacter sphaeroides) (protein)
chain: EGLANGEVMSGCHWGVFKARVENGRAVAFEPWDKDPAPSHQLPGVLDSIYSPTRIKYPMVRREFLEKGVNADRSTRGNGDFVRVTWDEALDLVARELKRVQESYGPTGTFGGSYGWKSPGRLHNCQVLMRRALNLAGGFVNSSGDYSTAAAQIIMPHVMGTLEVYEQQTAWPVVVENTDLMVFWAADPMKTNEIGWVIPDHGAYAGMKALKEKGTRVICINPVRTETADYFGADVVSPRPQTDVALMLGMAHTLYSEDLHDKDFLENCTTGFDLFAAYLTGESDGTPKTAEWAAEICGLPAEQIRELARSFVAGRTMLAAGWSIQRMHHGEQAHWMLVTLASMIGQIGLPGGGFGLSYHYSNGGSPTSDGPALGGISDGGKAVEGAAWLSESGATSIPCARVVDMLLNPGGEFQFNGATATYPDVKLAYWAGGNPFAHHQDRNRMLKAWEKLETFIVQDFQWTATARHADIVLPATTSYERNDIESVGDYSNRAILAMKKVVDPLYEARSDYDIFAALAERLGKGAEFTEGRDEMGWISSFYEAAVKQAEFKNVAMPSFEDFWSEGIVEFPITEGANFVRYADFREDPLFNPLGTPSGLIEIYSKNIEKMGYDDCPAHPTWMEPAERLGGAGAKYPLHVVASHPKSRLHSQLNGTSLRDLYAVAGHEPCLINPADAAARGIADGDVLRVFNDRGQILVGAKVSDAVMPGAIQIYEGGWYDPLDPSEEGTLDKYGDVNVLSLDVGTSKLAQGNCGQTILADVEKYAGAPVTVTVFDTPKGA
notes: full-length dorA with C-terminal 6-His tag (kept), pIND4-DorA-His; expressed in R. sphaeroides f. sp. denitrificans IL106 dorA- (host) and purified from periplasm; monomeric
Q: Which results are given for B1?
A: Km [1]: 68.8 ± 5.7 µM; kcat [1]: 4.2 ± 0.1 s⁻¹; kcat/Km [1]: 61000 M⁻¹ s⁻¹; Km [2]: 1.8 ± 0.4 µM; kcat [2]: 3.9 s⁻¹; kcat/Km [2]: 2.2e+06 M⁻¹ s⁻¹
